The results in this text go back to patent US20250270314A1 (TAVOTEK BIOTECH SUZHOU, published 2025).

The chains are these.
T1: human CDH17 on AGS gastric cancer cells and AsPC-1 pancreatic cancer cells (human, UniProt Q12864 23-832)
T1 construct: Native CDH17 on the surface of cancer cell lines; also called CDH17 expressing AGS cells; CDH17 expressing AsPC-1 pancreatic cancer cells
T1 sequence: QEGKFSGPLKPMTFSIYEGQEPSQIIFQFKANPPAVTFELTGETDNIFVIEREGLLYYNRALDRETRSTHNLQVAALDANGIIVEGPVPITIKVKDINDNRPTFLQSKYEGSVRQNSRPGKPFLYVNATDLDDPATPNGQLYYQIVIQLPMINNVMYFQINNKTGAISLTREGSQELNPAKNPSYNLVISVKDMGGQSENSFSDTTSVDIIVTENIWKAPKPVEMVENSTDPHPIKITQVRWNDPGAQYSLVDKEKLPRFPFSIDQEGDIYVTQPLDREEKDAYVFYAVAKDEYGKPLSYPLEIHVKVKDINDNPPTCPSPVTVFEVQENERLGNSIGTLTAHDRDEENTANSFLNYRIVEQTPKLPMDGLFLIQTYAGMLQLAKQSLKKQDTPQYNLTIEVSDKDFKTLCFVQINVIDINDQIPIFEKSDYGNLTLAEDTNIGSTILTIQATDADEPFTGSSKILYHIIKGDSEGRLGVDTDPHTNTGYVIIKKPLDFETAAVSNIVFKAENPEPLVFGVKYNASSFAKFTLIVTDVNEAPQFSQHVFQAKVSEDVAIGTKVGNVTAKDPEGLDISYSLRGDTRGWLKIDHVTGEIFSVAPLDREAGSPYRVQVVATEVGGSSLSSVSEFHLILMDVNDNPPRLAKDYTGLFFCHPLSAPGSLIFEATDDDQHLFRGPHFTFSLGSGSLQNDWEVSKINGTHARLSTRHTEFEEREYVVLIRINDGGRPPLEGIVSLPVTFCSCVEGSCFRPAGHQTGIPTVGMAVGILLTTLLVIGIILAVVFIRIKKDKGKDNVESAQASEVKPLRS

B1: VHO v357 (VHH)
VHH: EVQLLESGGGLVQPGGSLRLSCAASGFTFSDYWMSWVRQAPGKGLEWVSNISSSGSSTYYADSVKGRFTISRDNSKNTLYLQMNSLRAEDTAVYYCAKTSDWLSGKIDEHFDYWGQGTLVTVSS
notes: Variable-heavy-only (VHO) single domain; also called TS00357
B2: VHO v369 (VHH)
VHH: EVQLLESGGGLVQPGGSLRLSCAASGFTFSDYWMSWVRQAPGKGLEWVSNISGSGSSTYYADSVKGRFTISRDNSKNTLYLQMNSLRAEDTAVYYCAKTSQWLARERSSEFDYWGQGTLVTVSS
notes: Variable-heavy-only (VHO) single domain; also called TS00369
B3: VHO v370 (VHH)
VHH: EVQLLESGGGLVQPGGSLRLSCAASGFTFSNYWMSWVRQAPGKGLEWVSNISSDGGSTYYADSVKGRFTISRDNSKNTLYLQMNSLRAEDTAVYYCAKTTTWLTYRQGHGFDYWGQGTLVTVSS
notes: Variable-heavy-only (VHO) single domain; also called TS00370
B4: VHO v342 (VHH)
VHH: EVQLLESGGGLVQPGGSLRLSCAASGFTFSDYWMSWVRQAPGKGLEWVSNISQSGGSTYYADSVKGRFTISRDNSKNTLYLQMNSLRAEDTAVYYCAKDTPGPRWDFDYWGQGTLVTVSS
notes: Variable-heavy-only (VHO) single domain; also called TS00342
B5: VHO v346 (VHH)
VHH: EVQLLESGGGLVQPGGSLRLSCAASGFTFSDYWMSWVRQAPGKGLEWVSAIKQDGGSTYYADSVKGRFTISRDNSKNTLYLQMNSLRAEDTAVYYCAKETWEAHWDFDYWGQGTLVTVSS
notes: Variable-heavy-only (VHO) single domain; also called TS00346
B6: VHO v365 (VHH)
VHH: EVQLLESGGGLVQPGGSLRLSCAASGFTFSDYWMSWVRQAPGKGLEWVSNINQDGGSTYYADSVKGRFTISRDNSKNTLYLQMNSLRAEDTAVYYCAKTSDWLLVQFDYWGQGTLVTVSS
notes: Variable-heavy-only (VHO) single domain; also called TS00365
B7: VHO v341 (VHH)
VHH: EVQLLESGGGLVQPGGSLRLSCAASGFTFSTYWMSWVRQAPGKGLEWVSVINQDGSSTYYADSVKGRFTISRDNSKNTLYLQMNSLRAEDTAVYYCAKDELKSEWDFDYWGQGTLVTVSS
notes: Variable-heavy-only (VHO) single domain; also called TS00341
B8: VHO v379 (VHH)
VHH: EVQLLESGGGLVQPGGSLRLSCAASGFTFSSYGMSWVRQAPGKGLEWVSNINQSGSSTYYADSVKGRFTISRDNSKNTLYLQMNSLRAEDTAVYYCAKHSHWAHRVLQSFDYWGQGTLVTVSS
notes: Variable-heavy-only (VHO) single domain; also called TS00379
B9: VHO v355 (VHH)
VHH: EVQLLESGGGLVQPGGSLRLSCAASGFTFSDYWMSWVRQAPGKGLEWVSAISGDGSSTYYADSVKGRFTISRDNSKNTLYLQMNSLRAEDTAVYYCAKETWGTYDFDYWGQGTLVTVSS
notes: Variable-heavy-only (VHO) single domain; also called TS00355
B10: VHO v352 (VHH)
VHH: EVQLLESGGGLVQPGGSLRLSCAASGFTFSSYWMHWVRQAPGKGLEWVSAIWSSGGSTYYADSVKGRFTISRDNSKNTLYLQMNSLRAEDTAVYYCAKSKSLHEDFDYWGQGTLVTVSS
notes: Variable-heavy-only (VHO) single domain; also called TS00352
B11: VHO v345 (VHH)
VHH: EVQLLESGGGLVQPGGSLRLSCAASGFTFSNYWMSWVRQAPGKGLEWVSAIKQDGSSTYYADSVKGRFTISRDNSKNTLYLQMNSLRAEDTAVYYCAKEEWRDYDFDYWGQGTLVTVSS
notes: Variable-heavy-only (VHO) single domain; also called TS00345
B12: VHO v343 (VHH)
VHH: EVQLLESGGGLVQPGGSLRLSCAASGFTFSDYWMSWVRQAPGKGLEWVSAIKGDGSSTYYADSVKGRFTISRDNSKNTLYLQMNSLRAEDTAVYYCAKEEWRPYSFDYWGQGTLVTVSS
notes: Variable-heavy-only (VHO) single domain; also called TS00343
B13: VHO v349 (VHH)
VHH: EVQLLESGGGLVQPGGSLRLSCAASGFTFSDYWMHWVRQAPGKGLEWVSAIWSSGGSTYYADSVKGRFTISRDNSKNTLYLQMNSLRAEDTAVYYCAKSPTLYDDFDYWGQGTLVTVSS
notes: Variable-heavy-only (VHO) single domain; also called TS00349
B14: VHO v376 (VHH)
VHH: EVQLLESGGGLVQPGGSLRLSCAASGFTFSDYWMSWVRQAPGKGLEWVSGINSSGGSTYYADSVKGRFTISRDNSKNTLYLQMNSLRAEDTAVYYCAKWQFVTQPGHKAFDYWGQGTLVTVSS
notes: Variable-heavy-only (VHO) single domain; also called TS00376
B15: VHO v380 (VHH)
VHH: EVQLLESGGGLVQPGGSLRLSCAASGFTFSNYWMSWVRQAPGKGLEWVSGISQSGSSTYYADSVKGRFTISRDNSKNTLYLQMNSLRAEDTAVYYCAKWQFASWRGDKDFDYWGQGTLVTVSS
notes: Variable-heavy-only (VHO) single domain; also called TS00380
B16: VHO v362 (VHH)
VHH: EVQLLESGGGLVQPGGSLRLSCAASGFTFSDYWMSWVRQAPGKGLEWVSNISSDGGSTYYADSVKGRFTISRDNSKNTLYLQMNSLRAEDTAVYYCAKTTTWLLSQHDKTSFDYWGQGTLVTVSS
notes: Variable-heavy-only (VHO) single domain; also called TS00362
B17: VHO v372 (VHH)
VHH: EVQLLESGGGLVQPGGSLRLSCAASGFTFSSYWMSWVRQAPGKGLEWVSGINYSGSSTYYADSVKGRFTISRDNSKNTLYLQMNSLRAEDTAVYYCAKWSWLGSDKADFDYWGQGTLVTVSS
notes: Variable-heavy-only (VHO) single domain; also called TS00372
B18: VHO v371 (VHH)
VHH: EVQLLESGGGLVQPGGSLRLSCAASGFTFSNYWMSWVRQAPGKGLEWVSGINGSGGSTYYADSVKGRFTISRDNSKNTLYLQMNSLRAEDTAVYYCAKWHWYGQEKKAFDYWGQGTLVTVSS
notes: Variable-heavy-only (VHO) single domain; also called TS00371
B19: VHO v377 (VHH)
VHH: EVQLLESGGGLVQPGGSLRLSCAASGFTFSDYWMSWVRQAPGKGLEWVSAISGDGSSTYYADSVKGRFTISRDNSKNTLYLQMNSLRAEDTAVYYCAKEDWRPGFDYWGQGTLVTVSS
notes: VHO single domain; also called TS00377
B20: VHO v374 (VHH)
VHH: EVQLLESGGGLVQPGGSLRLSCAASGFTFSTYWMSWVRQAPGKGLEWVSGINQDGSSTYYADSVKGRFTISRDNSKNTLYLQMNSLRAEDTAVYYCAKWHWAGSSQQFDYWGQGTLVTVSS
notes: VHO single domain; also called TS00374
B21: VHO v347 (VHH)
VHH: EVQLLESGGGLVQPGGSLRLSCAASGFTFSTYAMSWVRQAPGKGLEWVSNISGSGGSTYYADSVKGRFTISRDNSKNTLYLQMNSLRAEDTAVYYCAKEQQWVPGFGFDYWGQGTLVTVSS
notes: Variable-heavy-only (VHO) single domain; also called TS00347
B22: VHO v351 (VHH)
VHH: EVQLLESGGGLVQPGGSLRLSCAASGFTFSSYAMSWVRQAPGKGLEWVSNISGSGSSTYYADSVKGRFTISRDNSKNTLYLQMNSLRAEDTAVYYCAKESQHSPGWGFDYWGQGTLVTVSS
notes: Variable-heavy-only (VHO) single domain; also called TS00351

This test addresses T1, human CDH17 on AGS gastric cancer cells …. Nature of the test: flow cytometry on AGS and AsPC-1 cells.
For the molecule B1, the binding result was “binds”.

As to B2, the binding result was “binds”. Turning to B3, the binding result is “binds”. As for B4, the entry is “binds”. As for B5, the entry is “binds”; as for B6, “binds”. As to B7, the binding result was “binds”.

As for B8, the binding result was “binds”. As for B9, the entry is “binds”; as for B10, “binds”; as for B11, “binds”. In the case of B12, the binding result is given as “binds”. As for B13, the entry is “binds”. As for B14, the entry is “binds”; as for B15, “binds”; as for B16, “binds”. Regarding B17, the binding result is “binds”. The result for B18 reads “binds”; that for B19, “binds”. The result for B20 reads “binds”; that for B21, “binds”; that for B22, “binds”.
